Patent US20200330603A1, “PEPTIDES FOR RENAL THERAPY” (FRED HUTCHINSON CANCER RESEARCH CENTER, priority 2015, published 2020)
Ends that are not written are not given here.

Columns and labels:
[1] = Confocal imaging of kidneys 30 minutes after administration; type: in vivo, mice; details: 10 nmol
From the text: Kidneys were isolated, sectioned, and imaged using a Zeiss confocal microscopy.

[2] = Competitive renal uptake studies, fluorescence imaging of whole organs; type: in vivo, mice; details: 10 nmol iv, 4 hours, p-value of 0.015
Experimental: This example describes competitive uptake studies of peptides of this disclosure in kidneys. Peptides of this disclosure were compared to known kidney homers (“competitors”) to assess the efficiency and strength of kidney targeting. Three competitors were tested against a peptide of SEQ ID NO: 4, and kidney uptake was quantified by fluorescence imaging of whole organs on a Spectrum IVIS imager.
Kidneys from uninjected mice were used as a negative control. Fluorescence signal in each group was quantified to determine the average radiant efficiency in the kidneys from three mice per cohort. Data are shown as mean and error bars indicate standard deviation. A p-value of 0.0081 was calculated by a T-test, and the error bars indicate standard deviation. In this experiment, the unlabeled SEQ ID NO: 4 peptide competed with the SEQ ID NO: 4-AF647 as shown by decreased fluorescence and thus, decreased accumulation of the dye labeled peptide in the kidney. […] Fluorescence signal in each group was quantified to determine the average radiant efficiency in the kidneys from three mice per cohort. Data are shown as mean and error bars indicate standard deviation. Kidney uptake of a peptide of SEQ ID NO: 4-AF647 was not dampened by SEQ ID NO: 121 peptide even at the highest ratio of competitor. […] Fluorescence signal in each group was quantified to determine the average radiant efficiency in the kidneys from three mice per cohort. Data are shown as mean and error bars indicate standard deviation. A p-value of 0.015 was calculated by a Student's unpaired t-test.

SEQ ID NO: 4-AF647: SEQ ID NO: 4 conjugated to AF647 (GSSCEPGRTFRDRCNTCRCGADGRSAACTLRACPNQ; not fully specified; cysteine pairing not given here)
accumulation of dye in the kidney proximal tubules (FIG. 13) [1]: can deliver and accumulate dye when attached as a conjugate in the kidney proximal tubules | renal uptake compared with control peptide-AF647 (FIG. 12) [2]: significantly higher extent than the control peptide
